Source: the supplement of paper PMC10567573

B1: NEK8 (parent)
chain: VVGTPCYISPELCEGKPYNQKSDI

Variants of: B1
Assay: protein stability index of a GFP-peptide fusion (GPS, HEK-293T) (PSI 1-6); higher = more stable
Settings: c terminus: a fixed tail appended
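Also: lentivirally expressed fusions sorted by FACS into six bins by GFP to DsRed ratio, PSI derived from sequencing read proportions per bin multiplied by bin number.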

Variant	protein stability index
VVGTPCYISPELYEGKPYNQKSDI [C13Y]	2.79
VVGTPCYISPELMEGKPYNQKSDI [C13M]	2.79
VVGTPCYISPELPEGKPYNQKSDI [C13P]	2.3
VVGTPCYISPELREGKPYNQKSDI [C13R]	3.27
VVGTPCYISPELTEGKPYNQKSDI [C13T]	2.94
VVGTPCYISPELSEGKPYNQKSDI [C13S]	2.9
VVGTPCYISPELQEGKPYNQKSDI [C13Q]	2.79
VVGTPCYISPELEEGKPYNQKSDI [C13E]	2.98
VVGTPCYISPELVEGKPYNQKSDI [C13V]	2.95
VVGTPCYISPELWEGKPYNQKSDI [C13W]	1.92
VVGTPCYISPELLEGKPYNQKSDI [C13L]	2.88
VVGTPCYISPELIEGKPYNQKSDI [C13I]	2.48
VVGTPCYISPELFEGKPYNQKSDI [C13F]	2.19
VVGTPCYISPELDEGKPYNQKSDI [C13D]	3.34
VVGTPCYISPELGEGKPYNQKSDI [C13G]	3.08
VVGTPCYISPELNEGKPYNQKSDI [C13N]	3.23
VVGTPCYISPELAEGKPYNQKSDI [C13A]	2.71
VVGTPCYISPELHEGKPYNQKSDI [C13H]	2.92
VVGTPCYISPELKEGKPYNQKSDI [C13K]	3.38
VVGTPCYISPERCEGKPYNQKSDI [L12R]	3.35
VVGTPCYISPEVCEGKPYNQKSDI [L12V]	2.83
VVGTPCYISPEICEGKPYNQKSDI [L12I]	2.93
VVGTPCYISPENCEGKPYNQKSDI [L12N]	3.62
VVGTPCYISPEMCEGKPYNQKSDI [L12M]	2.76

Variant	protein stability index
VVGTPCYISPEYCEGKPYNQKSDI [L12Y]	2.27
VVGTPCYISPEQCEGKPYNQKSDI [L12Q]	2.71
VVGTPCYISPEGCEGKPYNQKSDI [L12G]	4.29
VVGTPCYISPECCEGKPYNQKSDI [L12C]	3.29
VVGTPCYISPESCEGKPYNQKSDI [L12S]	3.15
VVGTPCYISPEKCEGKPYNQKSDI [L12K]	3.69
VVGTPCYISPEPCEGKPYNQKSDI [L12P]	3.6
VVGTPCYISPEWCEGKPYNQKSDI [L12W]	1.83
VVGTPCYISPEDCEGKPYNQKSDI [L12D]	3.4
VVGTPCYISPEHCEGKPYNQKSDI [L12H]	3.59
VVGTPCYISPEACEGKPYNQKSDI [L12A]	3.1
VVGTPCYISPEECEGKPYNQKSDI [L12E]	4.11
VVGTPCYISPEFCEGKPYNQKSDI [L12F]	2.15
VVGTPCYISPETCEGKPYNQKSDI [L12T]	3.15
VVGTPCYISPELCEGKPNNQKSDI [Y18N]	3.63
VVGTPCYISPELCEGKPPNQKSDI [Y18P]	3.4
VVGTPCYISPELCEGKPHNQKSDI [Y18H]	2.7
VVGTPCYISPELCEGKPSNQKSDI [Y18S]	3.86
VVGTPCYISPELCEGKPMNQKSDI [Y18M]	3.15
VVGTPCYISPELCEGKPLNQKSDI [Y18L]	2.8
VVGTPCYISPELCEGKPVNQKSDI [Y18V]	3.67
VVGTPCYISPELCEGKPTNQKSDI [Y18T]	3.68
VVGTPCYISPELCEGKPCNQKSDI [Y18C]	3.05
VVGTPCYISPELCEGKPGNQKSDI [Y18G]	3.45

Variant	protein stability index
VVGTPCYISPELCEGKPWNQKSDI [Y18W]	2.6
VVGTPCYISPELCEGKPKNQKSDI [Y18K]	3.67
VVGTPCYISPELCEGKPQNQKSDI [Y18Q]	3.5
VVGTPCYISPELCEGKPDNQKSDI [Y18D]	3.53
VVGTPCYISPELCEGKPINQKSDI [Y18I]	2.79
VVGTPCYISPELCEGKPFNQKSDI [Y18F]	2.67
VVGTPCYISPELCEGKPENQKSDI [Y18E]	3.72
VVGTPCYISPELCEGKPRNQKSDI [Y18R]	3.58
VVGTPCYISPELCEGKPANQKSDI [Y18A]	3.6
VVGTPCYISPELCEGKDYNQKSDI [P17D]	3.05
VVGTPCYISPELCEGKLYNQKSDI [P17L]	2.23
VVGTPCYISPELCEGKAYNQKSDI [P17A]	2.91
VVGTPCYISPELCEGKQYNQKSDI [P17Q]	2.77
VVGTPCYISPELCEGKHYNQKSDI [P17H]	2.9
VVGTPCYISPELCEGKWYNQKSDI [P17W]	1.65
VVGTPCYISPELCEGKIYNQKSDI [P17I]	2.39
VVGTPCYISPELCEGKYYNQKSDI [P17Y]	2.27
VVGTPCYISPELCEGKFYNQKSDI [P17F]	1.99
VVGTPCYISPELCEGKKYNQKSDI [P17K]	2.99
VVGTPCYISPELCEGKEYNQKSDI [P17E]	3.09
VVGTPCYISPELCEGKNYNQKSDI [P17N]	3.12
VVGTPCYISPELCEGKGYNQKSDI [P17G]	2.76
VVGTPCYISPELCEGKTYNQKSDI [P17T]	3
VVGTPCYISPELCEGKSYNQKSDI [P17S]	3.02

Variant	protein stability index
VVGTPCYISPELCEGKMYNQKSDI [P17M]	2.35
VVGTPCYISPELCEGKCYNQKSDI [P17C]	2.22
VVGTPCYISPELCEGKRYNQKSDI [P17R]	3.38
VVGTPCYISPELCEGKVYNQKSDI [P17V]	2.55
VVGTPCYISPELCEIKPYNQKSDI [G15I]	2.41
VVGTPCYISPELCEHKPYNQKSDI [G15H]	2.84
VVGTPCYISPELCESKPYNQKSDI [G15S]	2.37
VVGTPCYISPELCETKPYNQKSDI [G15T]	2.87
VVGTPCYISPELCEQKPYNQKSDI [G15Q]	2.97
VVGTPCYISPELCEMKPYNQKSDI [G15M]	2.39
VVGTPCYISPELCECKPYNQKSDI [G15C]	2.47
VVGTPCYISPELCEPKPYNQKSDI [G15P]	2.56
VVGTPCYISPELCEKKPYNQKSDI [G15K]	3.45
VVGTPCYISPELCEYKPYNQKSDI [G15Y]	2.34
VVGTPCYISPELCEEKPYNQKSDI [G15E]	2.8
VVGTPCYISPELCEFKPYNQKSDI [G15F]	2.15
VVGTPCYISPELCEVKPYNQKSDI [G15V]	3.14
VVGTPCYISPELCEDKPYNQKSDI [G15D]	2.93
VVGTPCYISPELCERKPYNQKSDI [G15R]	2.85
VVGTPCYISPELCENKPYNQKSDI [G15N]	2.68
VVGTPCYISPELCEWKPYNQKSDI [G15W]	1.64
VVGTPCYISPELCELKPYNQKSDI [G15L]	2.19
VVGTPCYISPELCEAKPYNQKSDI [G15A]	2.85
VVGTPCYISPELCEGKPYCQKSDI [N19C]	2.46

Variant	protein stability index
VVGTPCYISPELCEGKPYSQKSDI [N19S]	3.1
VVGTPCYISPELCEGKPYDQKSDI [N19D]	3.22
VVGTPCYISPELCEGKPYRQKSDI [N19R]	2.45
VVGTPCYISPELCEGKPYTQKSDI [N19T]	2.98
VVGTPCYISPELCEGKPYLQKSDI [N19L]	2.21
VVGTPCYISPELCEGKPYFQKSDI [N19F]	2.14
VVGTPCYISPELCEGKPYEQKSDI [N19E]	2.94
VVGTPCYISPELCEGKPYAQKSDI [N19A]	2.79
VVGTPCYISPELCEGKPYKQKSDI [N19K]	2.98
VVGTPCYISPELCEGKPYIQKSDI [N19I]	2.38
VVGTPCYISPELCEGKPYGQKSDI [N19G]	2.48
VVGTPCYISPELCEGKPYVQKSDI [N19V]	2.73
VVGTPCYISPELCEGKPYPQKSDI [N19P]	2.82
VVGTPCYISPELCEGKPYYQKSDI [N19Y]	2.39
VVGTPCYISPELCEGKPYHQKSDI [N19H]	2.48
VVGTPCYISPELCEGKPYWQKSDI [N19W]	2.02
VVGTPCYISPELCEGKPYQQKSDI [N19Q]	3.19
VVGTPCYISPELCEGKPYMQKSDI [N19M]	2.88
VVGTPCYISPELCEGKPYNQLSDI [K21L]	2.41
VVGTPCYISPELCEGKPYNQPSDI [K21P]	2.45
VVGTPCYISPELCEGKPYNQHSDI [K21H]	2.86
VVGTPCYISPELCEGKPYNQASDI [K21A]	2.99
VVGTPCYISPELCEGKPYNQESDI [K21E]	2.48
VVGTPCYISPELCEGKPYNQMSDI [K21M]	2.07

Variant	protein stability index
VVGTPCYISPELCEGKPYNQNSDI [K21N]	2.85
VVGTPCYISPELCEGKPYNQGSDI [K21G]	2.79
VVGTPCYISPELCEGKPYNQDSDI [K21D]	2.93
VVGTPCYISPELCEGKPYNQISDI [K21I]	1.97
VVGTPCYISPELCEGKPYNQFSDI [K21F]	1.75
VVGTPCYISPELCEGKPYNQCSDI [K21C]	2.51
VVGTPCYISPVLCEGKPYNQKSDI [E11V]	1.59
VVGTPCYISPSLCEGKPYNQKSDI [E11S]	2.7
VVGTPCYISPYLCEGKPYNQKSDI [E11Y]	2.05
VVGTPCYISPWLCEGKPYNQKSDI [E11W]	1.08
VVGTPCYISPTLCEGKPYNQKSDI [E11T]	2.48
VVGTPCYISPELCEGKPYNFKSDI [Q20F]	1.85
VVGTPCYISPELCEGKPYNRKSDI [Q20R]	2.84
VVGTPCYISPELCEGKPYNNKSDI [Q20N]	3.3
VVGTPCYISPELCEGKPYNLKSDI [Q20L]	2.55
VVGTPCYISPELCEGKPYNIKSDI [Q20I]	2.24
VVGTPCYISPELCEGKPYNVKSDI [Q20V]	2.79
VVGTPCYISPELCEGKPYNCKSDI [Q20C]	2.57
VVGTPCYISPELCEGKPYNDKSDI [Q20D]	2.54
VVGTPCYISPELCEGKPYNSKSDI [Q20S]	2.49
VVGTPCYISPELCEGKPYNHKSDI [Q20H]	2.59
VVGTPCYISPELCEGKPYNWKSDI [Q20W]	1.89
VVGTPCYISPELCEGKPYNGKSDI [Q20G]	2.71
VVGTPCYISPELCEGKPYNKKSDI [Q20K]	3.15

Variant	protein stability index
VVGTPCYISPELCEGKPYNMKSDI [Q20M]	2.22
VVGTPCYISPELCEGKPYNTKSDI [Q20T]	2.48
VVGTPCYISPELCEGKPYNPKSDI [Q20P]	2.31
VVGTPCYISPELCEGKPYNAKSDI [Q20A]	2.44
VVGTPCYISPELCEGKPYNEKSDI [Q20E]	2.63
VVGTPCYISPELCEGKPYNYKSDI [Q20Y]	2.14
VVGTPCYISPELCGGKPYNQKSDI [E14G]	2.52
VVGTPCYISPELCHGKPYNQKSDI [E14H]	2.23
VVGTPCYISPELCCGKPYNQKSDI [E14C]	2.73
VVGTPCYISPELCLGKPYNQKSDI [E14L]	2.67
VVGTPCYISPELCKGKPYNQKSDI [E14K]	2.6
VVGTPCYISPELCIGKPYNQKSDI [E14I]	2.2
VVGTPCYISPELCMGKPYNQKSDI [E14M]	2.28
VVGTPCYISPELCAGKPYNQKSDI [E14A]	2.49
VVGTPCYISPELCWGKPYNQKSDI [E14W]	2.5
VVGTPCYISPELCNGKPYNQKSDI [E14N]	2.52
VVGTPCYISPELCSGKPYNQKSDI [E14S]	2.38
VVGTPCYISPELCDGKPYNQKSDI [E14D]	2.45
VVGTPCYISPELCPGKPYNQKSDI [E14P]	2.79
VVGTPCYISPELCTGKPYNQKSDI [E14T]	2.73
VVGTPCYISPELCYGKPYNQKSDI [E14Y]	2.25
VVGTPCYISPELCRGKPYNQKSDI [E14R]	2.51
VVGTPCYISPELCVGKPYNQKSDI [E14V]	2.23
VVGTPCYISPELCFGKPYNQKSDI [E14F]	1.82

Variant	protein stability index
VVGTPCYISPELCQGKPYNQKSDI [E14Q]	2.37
VVGTPCYISPELCEGLPYNQKSDI [K16L]	2.07
VVGTPCYISPELCEGHPYNQKSDI [K16H]	2.15
VVGTPCYISPELCEGNPYNQKSDI [K16N]	3.13
VVGTPCYISPELCEGPPYNQKSDI [K16P]	2.15
VVGTPCYISPELCEGTPYNQKSDI [K16T]	2.54
VVGTPCYISPELCEGDPYNQKSDI [K16D]	3.14
VVGTPCYISPELCEGQPYNQKSDI [K16Q]	2.79
VVGTPCYISPELCEGCPYNQKSDI [K16C]	2.43
VVGTPCYISPELCEGSPYNQKSDI [K16S]	2.17
VVGTPCYISPELCEGWPYNQKSDI [K16W]	1.55
VVGTPCYISPELCEGGPYNQKSDI [K16G]	2.55
VVGTPCYISPELCEGVPYNQKSDI [K16V]	2.78
VVGTPCYISPELCEGYPYNQKSDI [K16Y]	1.96
VVGTPCYISPELCEGFPYNQKSDI [K16F]	2.11
VVGTPCYISPELCEGEPYNQKSDI [K16E]	3.05
VVGTPCYISPELCEGRPYNQKSDI [K16R]	2.62
VVGTPCYISPELCEGMPYNQKSDI [K16M]	2.81
VVGTPCYISPELCEGAPYNQKSDI [K16A]	2.16
VVGTPCYISPELCEGIPYNQKSDI [K16I]	2.02
